Data: paper PMC9457990, “Evolution of Interferon-Gamma Aptamer with Good Affinity and Analytical Utility by a Rational In Silico Base Mutagenesis Post-SELEX Strategy”
Substitutions are numbered along the chain they refer to.

B1: B1-4 (ssDNA)
DNA: CCGCCCAAATCCCTAAGAGAAGACTGTAATGACATCAAACCAGACACACTACACACGCA
B2: M5-5 (ssDNA)
DNA: B1 DNA with T14G, A18G, C24G, A34G, C49T
B3: M2-6 (ssDNA)
DNA: B1 DNA with A18G, C49T
B4: M1-8 (ssDNA)
DNA: B1 DNA with A18G
B5: M3-6 (ssDNA)
DNA: B1 DNA with A18T, T27G, A44T
B6: M4-10 (ssDNA)
DNA: B1 DNA with A18T, T27G, A29T, A44T

Target: interferon-gamma (IFN-γ) (Homo sapiens, UniProt P01579 24-161)
Experiment: BLI; PBS pH 7.4, 25 °C; BLI on SA sensors with 500 nM biotinylated aptamer loaded, IFN-γ 125-2000 nM; fluorescence assay in PBS, 250 nM M5-5, MB 1:3, 30 min at 25 °C
Settings: protein: commercial; chain copies: 2; label: biotin (BLI)

interferon-gamma (IFN-γ), sequence (P01579 24-161): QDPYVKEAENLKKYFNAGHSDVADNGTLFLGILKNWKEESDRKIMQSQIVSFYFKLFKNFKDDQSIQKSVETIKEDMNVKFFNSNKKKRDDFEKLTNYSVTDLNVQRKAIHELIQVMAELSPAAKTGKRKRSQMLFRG

Binder	Kd [nM]
B1	914
B2	106
B3	482
B4	440
B5	267
B6	277
